Reference: PMC9894219
Where two headings read alike, the source gives them in different places.

B1: NBRE (dsDNA)
DNA 1: CCGAAAAGGTCATGCG
DNA 2: CGCATGACCTTTTCGG
B2: IR5 biotinylated (dsDNA)
DNA 1: AAAGGTCAAACTGTGACCTAT
DNA 2: ATAGGTCACAGTTTGACCTTT

What was measured:
[1] = biological target: Nurr1258 (Nurr1 DBD-hinge-LBD) (UniProt P43354 258-598); assay: crystal structure
[2] = biological target: T1, Nurr1258 (in Nurr1258-RXRα98 heterodimer);RXRα98 (DBD-hinge-LBD) (human?;human?, UniProt P43354;P19793 258-598;98-462, |); assay: BLI
T1 sequence (P43354 258-598, chain 1 of 2): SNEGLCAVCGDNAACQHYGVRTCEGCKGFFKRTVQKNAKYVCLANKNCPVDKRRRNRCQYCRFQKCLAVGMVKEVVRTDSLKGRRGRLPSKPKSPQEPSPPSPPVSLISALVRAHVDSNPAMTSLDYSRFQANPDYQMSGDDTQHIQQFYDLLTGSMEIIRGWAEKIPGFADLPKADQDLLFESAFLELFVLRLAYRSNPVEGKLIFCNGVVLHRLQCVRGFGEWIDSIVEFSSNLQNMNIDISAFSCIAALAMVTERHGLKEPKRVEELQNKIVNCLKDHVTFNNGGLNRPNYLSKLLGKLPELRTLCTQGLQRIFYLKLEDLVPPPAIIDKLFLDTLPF
T1 sequence (P19793 98-462, chain 2 of 2): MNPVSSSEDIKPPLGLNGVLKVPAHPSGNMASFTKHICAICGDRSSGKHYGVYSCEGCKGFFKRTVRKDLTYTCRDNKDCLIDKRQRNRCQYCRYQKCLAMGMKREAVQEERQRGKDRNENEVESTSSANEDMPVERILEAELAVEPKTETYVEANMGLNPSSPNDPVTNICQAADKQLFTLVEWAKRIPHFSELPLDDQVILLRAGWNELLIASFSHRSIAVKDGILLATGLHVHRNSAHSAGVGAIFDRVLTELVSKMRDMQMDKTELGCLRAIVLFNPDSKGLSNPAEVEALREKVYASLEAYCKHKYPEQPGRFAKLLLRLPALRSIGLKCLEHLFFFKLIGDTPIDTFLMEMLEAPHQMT

[3] = biological target: T1, Nurr1258 (in Nurr1258-RXRα98 …); assay: BLI; remark: listed apart in the source

Nurr1258 (Nurr1 DBD-hinge-LBD), sequence (P43354 258-598): as the sequence (P43354 258-598, chain 1 of 2) above

Row | Binder | binding result [1] | Kd [2] | Kd [3]
1 | B1 | binds | – | –
2 | B2 | – | 864 nM | 62.5 nM
